Assay results published in patent publication US20200102347A1 (AUCTUS BIOLOGIES, published 2020).
Changes are numbered by the printed parent chain. Names and notes keep the numbering of the source. No end group written: not given here. *: point of attachment. RhodamineB = CCN(CC)c1ccc2c(-c3ccccc3C(=O)*)c3ccc(=[N+](CC)CC)cc-3oc2c1

T1: RPtag(small) Nd2, Cd4 (Thermoanaerobacter tengcongensis)
T1 peptide: RhodamineB-KIPNFIPAELKLITK

T2: MaturePDGF-β_NterminalPeptide
T2 construct: an N-terminal G was added and is left out of the numbering; also called PDGF-β peptide
T2 peptide: RhodamineB-GSLGSLTIAEPAMIAE

T3: RPtag(large) f137d (Thermoanaerobacter tengcongensis)
T3 construct: also called F137D RPtag(large)
T3 chain: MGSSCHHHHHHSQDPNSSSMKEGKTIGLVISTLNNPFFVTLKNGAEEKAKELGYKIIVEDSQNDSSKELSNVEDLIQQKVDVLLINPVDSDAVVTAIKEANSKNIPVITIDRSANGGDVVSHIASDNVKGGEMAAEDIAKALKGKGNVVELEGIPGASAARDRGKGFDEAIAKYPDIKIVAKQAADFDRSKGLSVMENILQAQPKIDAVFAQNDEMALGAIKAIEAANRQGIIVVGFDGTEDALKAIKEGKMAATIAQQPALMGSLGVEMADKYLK

B1: RPtag(large) H122L, A253R double mutant (designed binder)
chain: T3 chain with H122L, D137F, A253R
notes: Unlabeled against the rhodamine peptides; also called RPtag (large) h1221, a253r; double mutant RPtag(large)
B2: RPtag(small) l14k (peptide)
peptide: RhodamineB-GEKIPNFIPAELKKITKENVQ
notes: also called L14K RPtag(small)

How the values were obtained:
RPtag(small) Nd2, Cd4 = target: T1, RPtag(small) Nd2, Cd4; assay: fluorescence anisotropy, 2 nM rhodamine Nd2Cd4
Procedure: (§1) After the incubation, fluorescence anisotropy was measured, and the resultant curves were fit with the equation f=y0+(ymax−y0)*(Ptot+x+Kd−sqrt((Ptot+x+Kd)\hat{ }2−4*Ptot*x))/(2*Ptot), where y0 is the baseline anisotropy, ymax is the maximum anisotropy, Ptot is the fixed concentration of labeled peptide used, x is the variable concentration of protein used, and Kd is the measured Kd. […] Buffer was 50 mM Tris pH 8.0, 0.005% Tween20.

[1] = target: T2, MaturePDGF-β_NterminalPeptide; assay: fluorescence anisotropy, 20 nM rhodamine PDGF-β N-terminal peptide
Procedure: as §1

[2] = target: T4, PDGF-β dimer (recombinant, purified and refolded mature PDGF-β) (Homo sapiens (Human), UniProt P01127 82-190); assay: fluorescence anisotropy; 100 nM FITC-labeled RPtag large double mutant, unlabeled PDGF-β dimer titrated, 1 h at room temperature
T4 construct: also called mature PDGF-β dimer
T4 sequence (P01127 82-190): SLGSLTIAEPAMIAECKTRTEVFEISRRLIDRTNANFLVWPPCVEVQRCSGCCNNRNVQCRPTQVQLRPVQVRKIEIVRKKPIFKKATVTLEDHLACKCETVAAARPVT
Procedure: After 1 h incubation at room temperature, fluorescence anisotropy was measured, and the resultant curves were fit to a standard binding equation.

RPtag(large) f137d = target: T3, RPtag(large) f137d; assay: fluorescence anisotropy (FIG. 14)
Procedure: Resultant curves were fit with the equation f=y0+(ymax−y0)*(Ptot+x+Kd−sqrt((Ptot+x+Kd)\hat{ }2−4*Ptot*x))/(2*Ptot), where y0 is the baseline anisotropy, ymax is the maximum anisotropy, Ptot is the fixed concentration of labeled peptide used, x is the variable concentration of protein used, and Kd is the measured Kd. […] Buffer was 50 mM Tris pH 8.0, 0.005% tween20.

| Binder | Kd (RPtag(small) Nd2, Cd4) | Kd [1] | Kd [2] | binding result (RPtag(large) f137d) |
| --- | --- | --- | --- | --- |
| B1 | 3.1 nM | 1500 nM | 75 nM | – |
| B2 | – | – | – | binds |
